Like-named read-outs stand apart in the source and are kept apart here.
How the values were obtained:
Y751 phosphopeptide = experiment: phosphopeptide affinity resin, single incubation; PI3-kinase assay
p85α [1] = target: T1, p85α (Bos taurus, UniProt P23727); experiment: Binding of baculovirus expressed p85α to peptide columns; design: made in house; host or cells: Sf9 insect cells (baculovirus pAcC4-p85α); species or system bovine
Description: (§1) Proteins were diluted in binding buffer (50 mM phosphate buffer (pH 7.2), 150 mM NaCl, 0.02% Triton X-100, 2 mM EDTA and 200 μM sodium orthovanadate), mixed with the appropriate peptide affinity resin and then allowed to bind for 2 h at 4° C. with rotation. The column material was washed repeatedly (>6×) with 50 column volumes of the same buffer and then with various elution buffers containing NaCl, urea or detergents. Bound proteins were either assayed for PI3-kinase activity or were removed from the column by boiling in SDS-PAGE sample buffer and then analysed by SDS-PAGE.
Baculovirus expressed bovine p85α and p85β were chosen to test these columns (Otsu et al, 1991).

[2] = PI3-kinase assay on immunoprecipitates from baculovirus infected Sf9 cells; type: biochemical; details: expressed in Sf9 cells
Description: (§2) The assay for PI3-kinase activity was carried out as described by Whitman et al. (1985).
To clone the p110 coding region into the baculovirus transfer vector p36C (Page, 1989) a Sau 3A1 site (GGATCA) present 10 nucleotides upstream from the initiation codon (see FIG. 9) was changed to a BamHI (GGATCC site by PCR mediated mutagenesis. Briefly, a sense oligonucleotide substituting C for A at position 6 of the Sau3A1 site was used in a PCR reaction with an antisense primer comprising nucleotides (102-124) of the p110 sequence. (see FIG. 9) using Vent polymerase (New England Biolabs). Template DNA was random-primed first strand cDNA prepared from SGBAF-1 cell mRNA as described above; PCR conditions: 94° C. 1 min, 50° C. 1 min, 72° C. 2 min, 35 cycles. The PCR product was digested with BamHl-EcoNl and a 118 bp fragment isolated from a low melting point agarose gel. […] The BamHl-EcoNl fragment of p110/(BamHl) was sequenced and found to agree with that previously determined. […] Cells were harvested and lysed 2 days post-infection in EB lysis buffer (20 mM Tris-HCl (pH 7.4), 50 mM NaCl, 50 mM NaF, 1% NP40, 1 mM EDTA, 500 μM sodium orthovanadate, 2 mM PMSF, 100 Kallikrein inhibitor units of Aprotinin ml^−1) (Kazlauskas and Cooper, 1989) and lysates were analysed by […].

[3] = PI3-kinase assay on immunoprecipitates from transfected COS-1 cells; type: biochemical; details: anti-p110 antiserum
Description: as §2
For transient expression of p85α in COS-1 cells the coding region for p85α was cloned into the adenovirus late promoter based expression vector pMT2 (Kaufman et al, 1989) as previously described (Otsu et al, 1991). For expression of the p110 cDNA plasmid pSG5-p110 was constructed as follows. The 3.4 kb BamHl-HindIII fragment from cDNA p2.1 was ligated into pSG5 (Stratagene) cut with BamHl and BglII, the HindIII and BglII overhangs of p2.1 and pSG5 respectively, being filled in with Klenow polymerase. This gave construct pSG5.2. Plasmid pBS/race (above) was digested with EcoRl and Hindlll, the 350 bp band gel purified by electroelution (Maniatis et al, 1982) and further digested with Sau3Al and Bsml. This mixture was then added to the gel purified Bsml-BstMl fragment from p2.1 and ligated in a three fragment ligation to pSG5.2 digested with BamHl and BstXl. […] Lysates were analysed by immunoprecipitation with anti-p85α polyclonal antiserum or with anti-p110 C-terminal peptide antiserum. Immunocomplexes collected on Protein A-Sepharose beads were analysed either on 10% SDS-PAGE gels followed by autoradiography or subjected to in vitro PI3-kinase assays as described.

CSF-1 receptor = target: T2, CSF-1 receptor (Homo sapiens, UniProt P07333); experiment: In vitro association of PI3-kinase activity with the CSF-1 receptor; type: binding; details: Sf9 cell lysates, receptor phosphorylated with ATP before incubation
T2 construct: made in house; host or cells: Sf9 insect cells (baculovirus)
Description: This assay was performed essentially as described by Kazlauskas and Cooper (1990). Sf9 cells were infected as already described and lysed 48 h post-infection in EB lysis buffer. CSF-1 receptor was immunoprecipitated from Sf9 cells and collected on Protein A-Sepharose beads. The immunocomplex was then subjected to extensive washing (3 times with EB lysis buffer, twice with kinase buffer; 50 mM HEPES (pH 7.4), 150 mM NaCl, 0.02% Triton X-100, 12 mM MgCl2, 2 mM MnCl2, 10% glycerol, 500 μM sodium orthovanadate) and the receptor phosphorylated for 15 min at 20° C. with ATP. The precipitates were then washed again to remove free ATP and incubated for 2 h at 4° C. with cell lysates prepared from Sf9 cells infected with viruses expressing (i) p85α, (ii) p110 or (iii) co-infected with viruses expressing p85α and p110. The immune complexes were washed and assayed for associated PI3-kinase activity.

bovine brain PI3-kinase = target: T3, bovine brain PI3-kinase (Bos taurus, UniProt P23727); experiment: Binding of partially purified bovine brain PI3-kinase to peptide affinity columns
T3 construct: P13-kinase purified from bovine brain is a complex of p85α and p10; from tissue; host or cells: bovine brain
Description: as §1

bovine p85α = target: T4, bovine p85α (bovine, UniProt P23727 1-724); experiment: deletion mutants and PCR fragments of p110-N; retention of p85
T4 construct: Expressed by baculovirus in Sf9 cells or from pMT2-p85α in COS-1 cells, or native from bovine brain; which one is said under assay; also called 85 kD subunit; baculovirus expressed p85α
Text: (§3) The interation of the p85 and p110 subunits of PI3-kinase are thought to be required for the activity of the kinase in mammalian cells. Thus inhibiting the interaction between the subunits could provide a means of inhibiting the activity of this signal transduction pathway. In order to design reagents to p110 which will block the interaction, it is useful to define the region of […] which binds to the p85 subunits. To do this a series of mutants were constructed which express various domains of the […] protein (FIG. 23B). These fragments were expressed as GST fusion proteins in bacteria. The proteins were then bound to a glutathione sepharose column (Pharmicia) according to the manufacturer's instructions (Panayotou G et al (1992) Embo J 11:4261-4272). The ability of these protein fragments to bind the p85 subunits was assessed by the ability of the column specifically to retain p85 subunits purified from baculovirus (Otsu et al (1991) Cell 65:91-104). […] To further characterise the binding domain, deletion mutants and PCR fragments were made from the p110-N fragment as shown in FIG. 24. […] Removal of a further 20 amino acids from either the amino or carboxy termini led to loss of binding activity. Now that this domain has been identified it allows the design of specific peptides, antibodies or small molecules which can inhibit the interaction between the subunits.

bovine p85β = target: T5, bovine p85β (bovine, UniProt P23726 1-724); experiment: as above
T5 construct: Expressed by baculovirus in Sf9 cells or in COS-1 cells; also called baculovirus expressed p85β
Text: as §3

p85β = target: T6, p85β (Bos taurus, UniProt P23726); experiment: Retention of p85β by GST-p110 fragments on glutathione sepharose column; type: binding; details: GST fusion protein expressed in bacteria
T6 construct: made in house; host or cells: baculovirus / insect cells
Text: as §3

p85α [4] = target: T1, p85α; experiment: Retention of p85α by GST-p110 fragments on glutathione sepharose column; type: binding; design: made in house; host or cells: baculovirus / insect cells; details: GST fusion protein expressed in bacteria
Text: as §3

T1 sequence (P23727 whole entry): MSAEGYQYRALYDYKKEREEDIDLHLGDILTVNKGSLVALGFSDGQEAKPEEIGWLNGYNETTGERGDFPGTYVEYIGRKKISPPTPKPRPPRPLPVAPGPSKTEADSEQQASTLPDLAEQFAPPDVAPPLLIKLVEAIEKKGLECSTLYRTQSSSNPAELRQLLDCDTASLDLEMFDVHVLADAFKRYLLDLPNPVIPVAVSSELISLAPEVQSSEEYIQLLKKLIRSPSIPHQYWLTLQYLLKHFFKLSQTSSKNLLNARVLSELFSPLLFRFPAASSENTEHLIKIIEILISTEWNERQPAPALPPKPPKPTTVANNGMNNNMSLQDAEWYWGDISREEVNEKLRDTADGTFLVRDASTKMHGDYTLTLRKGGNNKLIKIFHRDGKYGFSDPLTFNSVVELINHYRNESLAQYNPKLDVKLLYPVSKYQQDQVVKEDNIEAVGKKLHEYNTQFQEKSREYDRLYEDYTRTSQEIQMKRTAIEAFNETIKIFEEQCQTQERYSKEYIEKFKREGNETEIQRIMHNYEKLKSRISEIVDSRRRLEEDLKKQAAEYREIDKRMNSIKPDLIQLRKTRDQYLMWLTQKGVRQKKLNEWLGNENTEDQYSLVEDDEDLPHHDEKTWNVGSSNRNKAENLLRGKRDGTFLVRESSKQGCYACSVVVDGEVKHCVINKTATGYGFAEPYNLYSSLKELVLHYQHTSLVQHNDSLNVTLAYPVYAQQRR
T6 sequence (P23726 whole entry, the tested form may be a part): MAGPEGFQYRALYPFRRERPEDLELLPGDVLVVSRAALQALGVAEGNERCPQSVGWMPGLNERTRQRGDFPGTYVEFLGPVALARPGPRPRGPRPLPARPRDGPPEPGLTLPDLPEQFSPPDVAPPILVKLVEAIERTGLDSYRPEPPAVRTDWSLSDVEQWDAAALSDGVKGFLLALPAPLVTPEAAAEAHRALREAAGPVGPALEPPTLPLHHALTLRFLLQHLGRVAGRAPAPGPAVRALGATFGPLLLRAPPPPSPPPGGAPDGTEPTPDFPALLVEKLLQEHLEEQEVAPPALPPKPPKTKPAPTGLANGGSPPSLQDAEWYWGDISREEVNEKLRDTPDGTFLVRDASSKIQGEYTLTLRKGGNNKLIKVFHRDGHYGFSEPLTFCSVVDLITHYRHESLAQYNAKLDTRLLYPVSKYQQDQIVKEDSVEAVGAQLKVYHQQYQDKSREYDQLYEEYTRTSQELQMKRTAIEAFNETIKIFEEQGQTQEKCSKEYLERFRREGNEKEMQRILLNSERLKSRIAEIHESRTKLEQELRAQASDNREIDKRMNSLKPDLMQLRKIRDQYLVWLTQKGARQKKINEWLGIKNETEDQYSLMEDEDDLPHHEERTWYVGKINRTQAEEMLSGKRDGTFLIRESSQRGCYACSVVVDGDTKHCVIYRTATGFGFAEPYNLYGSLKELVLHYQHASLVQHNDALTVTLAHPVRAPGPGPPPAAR
T5 sequence (P23726 whole entry): as the sequence (P23726 whole entry, the tested form may be a part) above
T2 sequence (P07333 20-972): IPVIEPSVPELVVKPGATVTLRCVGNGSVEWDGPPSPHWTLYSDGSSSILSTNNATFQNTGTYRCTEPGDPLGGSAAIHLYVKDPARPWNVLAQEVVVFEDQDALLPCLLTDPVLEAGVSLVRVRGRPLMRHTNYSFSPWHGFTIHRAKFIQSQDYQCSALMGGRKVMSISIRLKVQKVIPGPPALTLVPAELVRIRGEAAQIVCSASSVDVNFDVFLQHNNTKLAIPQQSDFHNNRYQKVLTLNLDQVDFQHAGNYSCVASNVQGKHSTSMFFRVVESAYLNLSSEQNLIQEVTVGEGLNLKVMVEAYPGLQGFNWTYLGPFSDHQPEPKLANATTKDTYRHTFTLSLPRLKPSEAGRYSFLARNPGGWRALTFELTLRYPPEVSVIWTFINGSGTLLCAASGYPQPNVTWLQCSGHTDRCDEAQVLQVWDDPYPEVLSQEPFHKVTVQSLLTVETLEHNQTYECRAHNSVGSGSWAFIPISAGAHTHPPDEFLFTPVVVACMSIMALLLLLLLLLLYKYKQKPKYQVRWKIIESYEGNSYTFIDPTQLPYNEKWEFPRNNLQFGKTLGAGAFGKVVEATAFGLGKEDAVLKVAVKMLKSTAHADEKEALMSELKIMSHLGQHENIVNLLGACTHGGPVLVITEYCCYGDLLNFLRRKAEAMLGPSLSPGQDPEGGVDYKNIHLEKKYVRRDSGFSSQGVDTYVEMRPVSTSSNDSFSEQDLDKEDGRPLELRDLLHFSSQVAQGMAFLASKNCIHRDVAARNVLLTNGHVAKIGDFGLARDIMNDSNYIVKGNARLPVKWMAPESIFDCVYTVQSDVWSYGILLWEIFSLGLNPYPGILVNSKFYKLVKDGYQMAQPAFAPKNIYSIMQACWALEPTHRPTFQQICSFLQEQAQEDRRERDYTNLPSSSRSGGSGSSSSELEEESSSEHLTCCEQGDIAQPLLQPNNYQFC
T4 sequence (P23727 whole entry, the tested form may be a part): as the sequence (P23727 whole entry) above
T3 sequence (P23727 whole entry): as above
T3 sequence (P32871 whole entry partner): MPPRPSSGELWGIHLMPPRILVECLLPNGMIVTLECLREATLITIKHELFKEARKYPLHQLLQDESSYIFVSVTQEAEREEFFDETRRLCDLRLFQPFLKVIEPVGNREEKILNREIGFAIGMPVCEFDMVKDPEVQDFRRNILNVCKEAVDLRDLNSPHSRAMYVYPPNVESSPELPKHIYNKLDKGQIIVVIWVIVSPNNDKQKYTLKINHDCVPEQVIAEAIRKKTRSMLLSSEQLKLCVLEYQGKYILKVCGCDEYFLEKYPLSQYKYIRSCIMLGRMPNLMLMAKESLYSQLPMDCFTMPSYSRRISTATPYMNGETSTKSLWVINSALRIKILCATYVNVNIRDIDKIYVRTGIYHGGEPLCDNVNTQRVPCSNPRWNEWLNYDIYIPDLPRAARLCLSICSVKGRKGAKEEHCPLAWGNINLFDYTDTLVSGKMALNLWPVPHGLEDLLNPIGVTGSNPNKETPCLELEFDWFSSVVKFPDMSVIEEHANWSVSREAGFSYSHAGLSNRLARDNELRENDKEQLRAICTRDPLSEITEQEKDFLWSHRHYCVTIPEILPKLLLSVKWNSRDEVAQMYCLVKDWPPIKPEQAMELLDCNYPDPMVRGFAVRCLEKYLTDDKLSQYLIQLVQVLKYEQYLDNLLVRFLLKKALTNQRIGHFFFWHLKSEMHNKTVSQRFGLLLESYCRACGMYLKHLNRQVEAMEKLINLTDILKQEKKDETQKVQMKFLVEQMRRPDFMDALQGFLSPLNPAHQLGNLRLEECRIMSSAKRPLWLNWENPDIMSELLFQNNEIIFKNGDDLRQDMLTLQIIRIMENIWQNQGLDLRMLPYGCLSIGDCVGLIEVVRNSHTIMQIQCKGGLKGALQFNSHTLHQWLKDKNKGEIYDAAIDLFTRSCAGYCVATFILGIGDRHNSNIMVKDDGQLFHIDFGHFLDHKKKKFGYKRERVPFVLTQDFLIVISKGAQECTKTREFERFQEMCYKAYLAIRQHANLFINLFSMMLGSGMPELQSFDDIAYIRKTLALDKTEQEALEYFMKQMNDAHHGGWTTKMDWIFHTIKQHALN

## partially purified bovine brain PI3-kinase (p85α/p110 complex) (from UniProt P23727 2-724; P32871 1-1068) (enzyme)
Y751 phosphopeptide
  PI3-kinase activity removed by the column: > 90%

## A R D I M R D S N Y I S K G S T F (ARDIMRDSNYISKGSTF) [Peptide Y587, 17 amino acid phosphopeptide around the second major tyrosine phosphorylation site in the PDGF β-receptor]
p85α [1]; Sf9 cell lysate, SDS-PAGE of bound proteins
  binding of baculovirus expressed p85α to the peptide column: bind both columns to a similar extent

## p110: bovine PI3-kinase 110 kD subunit, 1068 amino acids, calculated molecular mass 124,247
[2]
  PI3-kinase activity of immunoprecipitates: significant levels of PI3-kinase activity
[3]
  PI3-kinase activity of anti-p110 immunoprecipitates: no activity above that present in control immunoprecipitates
CSF-1 receptor
  association of PI3-kinase activity with CSF-1 receptor: No PI3-kinase activity associates

## D M S K D E S V D Y V P M L D M K [Y751 phosphopeptide]
Bovine brain PI3-kinase
  PI3-kinase activity removed from Mono Q peaks 1 or peak 2 by the column: > 90%
p85α [1]
  binding of baculovirus expressed p85α to the peptide column: bind both columns to a similar extent

## p85α: 85 kD subunit of PI3-kinase, baculovirus expressed
[2]
  PI3-kinase activity of immunoprecipitates: inactive
CSF-1 receptor
  association of PI3-kinase activity with CSF-1 receptor: No PI3-kinase activity associates

B1: human p110 19-110 with a further 20 amino acids removed from the amino terminus (other)
chain: EATLITIKHELFKEARKYPLHQLLQDESSYIFVSVTQEAEREEFFDETRRLCDLRLFQPFLKVIEPVGNREE
notes: Limits 39-110 are calculated from 'Removal of a further 20 amino acids'
Bovine p85α
  binding result: no binding
Bovine p85β
  binding result: no binding

B2: amino acids 19-110 of human p10: domain of human p110, amino acids 19-110, from deletion mutants of p110-N (protein, UniProt P42336 19-110, looked up, fragment)
chain: RILVECLLPNGMIVTLECLREATLITIKHELFKEARKYPLHQLLQDESSYIFVSVTQEAEREEFFDETRRLCDLRLFQPFLKVIEPVGNREE
p85β
  ability of p110 fragment to bind p85β subunit: sufficient to associate with the p85 subunits
p85α [4]
  ability of p110 fragment to bind p85α subunit: sufficient to associate with the p85 subunits

B3: p110-N: GST fusion of human p110 fragment αα1-128 (protein)
chain: MPPRPSSGELWGIHLMPPRILVECLLPNGMIVTLECLREATLITIKHELFKEARKYPLHQLLQDESSYIFVSVTQEAEREEFFDETRRLCDLRLFQPFLKVIEPVGNREEKILNREIGFAIGMPVCEF
modifications: left off: a dimerising Fc or GST
p85β
  ability of p110 fragment to bind p85β subunit: capable of binding
p85α [4]
  ability of p110 fragment to bind p85α subunit: capable of binding

B4: human p110 19-110 with a further 20 amino acids removed from the carboxy terminus (other)
chain: RILVECLLPNGMIVTLECLREATLITIKHELFKEARKYPLHQLLQDESSYIFVSVTQEAEREEFFDETRRLC
notes: Limits 19-90 are calculated from 'Removal of a further 20 amino acids'
Bovine p85α
  binding result: no binding
Bovine p85β
  binding result: no binding

Source: patent US7422849B1, “Method for determining expression of a PI3 kinase gene” (Ludwig Institute for Cancer Research, priority 1992, dated 2008)
